Measured values published in paper PMC10104637, “Phosphorylation of USP29 by CDK1 Governs TWIST1 Stability and Oncogenic Functions” (Advanced Science, 2023).

Target: T1, GST-USP29 (UniProt Q9HBJ7 1-922)
T1 construct: USP29 cloned into pGEX-4T-1; also called purified GST-USP29; GST-USP29 WT; source: E. coli BL21, purified (Pierce Glutathione Agarose)
T1 sequence (looked up): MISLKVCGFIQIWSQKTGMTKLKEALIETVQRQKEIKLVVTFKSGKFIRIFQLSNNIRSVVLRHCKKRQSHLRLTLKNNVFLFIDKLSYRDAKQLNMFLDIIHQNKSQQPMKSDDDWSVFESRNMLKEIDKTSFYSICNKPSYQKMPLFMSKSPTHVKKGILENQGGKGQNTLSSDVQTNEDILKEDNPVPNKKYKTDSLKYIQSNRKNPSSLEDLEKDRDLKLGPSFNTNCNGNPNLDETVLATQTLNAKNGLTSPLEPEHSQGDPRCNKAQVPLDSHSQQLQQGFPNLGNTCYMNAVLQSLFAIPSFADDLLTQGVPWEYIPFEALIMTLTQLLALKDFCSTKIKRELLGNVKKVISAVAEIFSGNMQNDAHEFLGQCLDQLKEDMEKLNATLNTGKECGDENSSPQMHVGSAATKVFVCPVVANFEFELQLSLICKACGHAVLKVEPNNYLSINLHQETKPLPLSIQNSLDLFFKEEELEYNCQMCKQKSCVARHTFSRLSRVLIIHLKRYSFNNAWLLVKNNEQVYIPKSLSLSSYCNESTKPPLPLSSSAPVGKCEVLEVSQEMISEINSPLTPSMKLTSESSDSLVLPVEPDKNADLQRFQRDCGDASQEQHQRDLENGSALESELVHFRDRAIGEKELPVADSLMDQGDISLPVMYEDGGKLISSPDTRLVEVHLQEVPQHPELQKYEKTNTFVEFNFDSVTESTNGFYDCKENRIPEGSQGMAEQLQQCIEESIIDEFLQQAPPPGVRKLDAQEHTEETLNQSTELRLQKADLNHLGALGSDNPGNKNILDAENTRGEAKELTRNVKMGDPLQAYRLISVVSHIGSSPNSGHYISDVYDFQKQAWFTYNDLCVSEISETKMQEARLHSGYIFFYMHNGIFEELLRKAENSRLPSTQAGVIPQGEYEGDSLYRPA
Test: pull-down; GST or GST-USP29 bound to Pierce Glutathione Agarose incubated with the purified His-tagged protein overnight at 4 °C; beads washed four times with PBS; western blot
Conditions: both partners purified

binding result: binds
B1: His-TWIST1 (natural protein, UniProt Q15672 1-202, looked up)
chain: MMQDVSSSPVSPADDSLSNSEEEPDRQQPPSGKRGGRKRRSSRRSAGGGAGPGGAAGGGVGGGDEPGSPAQGKRGKKSAGCGGGGGAGGGGGSSSGGGSPQSYEELQTQRVMANVRERQRTQSLNEAFAALRKIIPTLPSDKLSKIQTLKLAARYIDFLYQVLQSDELDSKMASCSYVAHERLSYAFSVWRMEGAWSMSASH
notes: TWIST1 cloned into PET28A; also called PET28A-TWIST1; source: E. coli BL21, purified
